Results on six molecules are retold here after article PMC7614096, “Head-to-tail polymerization by VEL proteins underpins cold-induced Polycomb silencing in flowering control” (Cell Reports, 2022).

By Kd is commonly meant the free concentration of one partner at which half of the binding sites on the other are occupied at equilibrium, for simple one-to-one binding.

B1: Lip-VIN3VEL (residues 500–603), wild type (domain or fragment, Arabidopsis thaliana, UniProt Q9FIE3 500-603, looked up)
chain: GKQGGNKRFKSRTVSLNEKPEINNAANGVGDKDLGHIVKTIRCLEEEGHIDKSFRERFLTWYSLRATHREVRVVKIFVETFMEDLSSLGQQLVDTFSESILSKR
notes: VEL domain of VIN3, Arabidopsis thaliana, Q9FIE3, residues 500-603; also called WT domain; source: E. coli BL21(DE3) pRARE2, purified (Ni-NTA, SEC); not shown: lipoyl (Lip) solubility tag, N-terminal, kept
B2: 6xHisLip-VIN3VEL I575D (ITC) (domain or fragment, Arabidopsis thaliana, UniProt Q9FIE3 529-603, looked up)
chain: GDKDLGHIVKTIRCLEEEGHIDKSFRERFLTWYSLRATHREVRVVKDFVETFMEDLSSLGQQLVDTFSESILSKR
notes: VEL domain of VIN3, Arabidopsis thaliana, Q9FIE3, I575D; residues 529-603 by the methods' rule for pLipK-VIN3VEL ('unless specified otherwise'); also called VIN3VEL tail mutant; source: E. coli BL21(DE3) pRARE2, purified (Ni-NTA, SEC); not shown: 6xHis, N-terminal, kept; lipoyl (Lip) solubility tag, N-terminal, kept
B3: VIN3VEL I575D, untagged (domain or fragment, Arabidopsis thaliana, UniProt Q9FIE3 529-603, looked up)
chain: B2 chain
modifications: selenomethionine (labelling for phasing, crystals)
notes: VEL domain of VIN3, Arabidopsis thaliana, Q9FIE3, I575D; also called VIN3 I575D; VIN3VEL tail mutant; source: E. coli BL21(DE3) pRARE2, purified (Ni-NTA, TEV cleavage, SEC); not shown: 6xHis, N-terminal, cleaved
B4: VIN3VEL RR>AD (R554A R556D), residues 529–603, untagged (domain or fragment, Arabidopsis thaliana, UniProt Q9FIE3 529-603, looked up)
chain: B2 chain with R26A, R28D, D47I
modifications: selenomethionine (labelling for phasing, crystals); 13C-15N double-labeled (NMR)
notes: VEL domain of VIN3, Arabidopsis thaliana, Q9FIE3, residues 529-603, R554A R556D; Used for the crystal structure 7O6U and, as 'untagged RR>AD', for NMR; also called VIN3 R554A R556D; VIN3VEL head mutant; source: E. coli BL21(DE3) pRARE2, purified (Ni-NTA, TEV cleavage, SEC); not shown: 6xHis, N-terminal, cleaved
B5: Lip-VEL1VEL (residues 589–692), wild type (domain or fragment, Arabidopsis thaliana, UniProt Q9SUM4 589-692, looked up)
chain: SDEIKNRQARIEISMKDNCNNGDHSANGGTESGLEHCVKIIRQLECSGHIDKNFRQKFLTWYSLRATSQEIRVVKIFIDTFIDDPMALAEQLIDTFDDRVSIKR
notes: VEL domain of VEL1, Arabidopsis thaliana, Q9SUM4, residues 589-692; source: E. coli BL21(DE3) pRARE2, purified (Ni-NTA, SEC); not shown: lipoyl (Lip) solubility tag, N-terminal, kept
B6: VEL1VEL I664D, residues 616–692, untagged (domain or fragment, Arabidopsis thaliana, UniProt Q9SUM4 616-692, looked up)
chain: GGTESGLEHCVKIIRQLECSGHIDKNFRQKFLTWYSLRATSQEIRVVKDFIDTFIDDPMALAEQLIDTFDDRVSIKR
modifications: selenomethionine (labelling for phasing)
notes: VEL domain of VEL1, Arabidopsis thaliana, Q9SUM4, residues 616-692, I664D; also called VEL1 I664D; source: E. coli BL21(DE3) pRARE2, purified (Ni-NTA, TEV cleavage, SEC); not shown: 6xHis, N-terminal, cleaved

Substitutions are numbered along the chain they refer to. Names and notes keep the numbering of the source. Some results are limits rather than exact numbers.

Data set [1] concerns the molecule itself. In words: SEC-MALS; Superdex200 10/300 GL in PBS with 1 mM DTT; increasing protein concentrations (2 mg/mL unless stated otherwise); self-association. Background: SEC sorts molecules by how far they enter the pores of the column.
Data set [2] concerns the target T1, 6xHisLip-VIN3VEL RR>AD (ITC) (Arabidopsis thaliana, UniProt Q9FIE3 529-603, R554A | R556D).
T1 construct: VEL domain of VIN3, Arabidopsis thaliana, Q9FIE3, R554A R556D; residues 529-603 by the methods' rule for pLipK-VIN3VEL ('unless specified otherwise'); also called VIN3VEL head mutant; source: E. coli BL21(DE3) pRARE2, purified (Ni-NTA, SEC); not shown: 6xHis, N-terminal, kept; lipoyl (Lip) solubility tag, N-terminal, kept
T1 sequence (looked up): B2 chain with R26A, R28D, D47I
In words: ITC; 25°C; 1 mM 6xHisLip-VIN3VEL I575D injected into 100 μM 6xHisLip-VIN3VEL RR>AD; 25 mM Tris pH 7.4, 200 mM NaCl, 0.5 mM DTT, 0.06% NaN3; head-to-tail interface between a head mutant and a tail mutant. The note with it: both partners purified. (In general: ITC needs no label: the signal is the heat of the interaction.)

Data set [3] deals with the molecule itself. In words: crystal structure; untagged VEL domains bearing polymerization-deficient point mutations, 4–25 mg/mL, sitting-drop vapor diffusion at 18°C; SAD with selenomethionine.
The target of data set [4] is B4. In words: NMR titration; 300 μM 13C-15N VEL RR>AD with 100 μM unlabeled VEL I575D; peak heights in 1H-15N fast-HSQC spectra; 25 mM phosphate pH 6.7, 150 mM NaCl, 283 K. To be noted: both partners purified.

On to B1, for which the “stoichiometry N” value in data set [1] was ~9 -mer. With B2, in data set [2], the equilibrium dissociation constant (Kd) was 1160 nM. In the case of B3, the binding result in data set [3] and in data set [4] was “binds” throughout. As for B4, the binding result in data set [3] was “binds”. B5: the “stoichiometry N” value in data set [1] was > 20 -mer. As to B6, in data set [3], the binding result is reported as “binds”.
